Reference: patent US20210115146A1

Tests used:
[1] = target: mouse EGFR (cell surface) (mouse) (UniProt Q01279); assay: FACS binding to W562-CHO-K1.mPro1.F3 cells (mouse EGFR), lower panel and table
[2] = target: mouse EGFR (cell surface) (mouse) (UniProt Q01279); assay: FACS binding to W562-CHO-K1.mPro1.F3 cells (mouse EGFR), lower panel and table; the curve is still rising at 100 nM
[3] = target: mouse EGFR (cell surface) (mouse) (UniProt Q01279); assay: FACS binding to mouse EGFR cells; the table head prints W562.CHOK1.cPro1.H6
[4] = target: Macaca fascicularis EGFR (cell surface) (Macaca fascicularis); assay: FACS binding to W562.CHOK1.cPro1.H6 cells (monkey EGFR), upper panel and table
[5] = target: Macaca fascicularis EGFR (cell surface) (Macaca fascicularis); assay: FACS binding to W562-CHO-K1.cPro1.H6 cells (monkey EGFR), lower panel and table

TOP MFI [1]: 32800 MFI
EC50 [2]: 6.41 nM
EC50 [3]: 2.42 nM
Top MFI [3]: 31000 MFI
EC50 [4]: 1.47 nM
Top MFI [4]: 37500 MFI
EC50 [5]: 1.24 nM
TOP MFI [5]: 16000 MFI
B1: W562-BMK3 (antibody, from another filing, human IgG1, V domains shown)
VH: QVQLQESGPGLVKPSETLSLTCTVSGLSLASNSVSWIRQPPGKGLEWMGVIWNHGGTDYNPSIKSRLSISRDTSKSQVFLKMNSLTAADTAMYFCVRKGGIYFDYWGQGVLVTVSS
VL: DTVLTQSPSLAVSPGERATISCRASESVSTLMHWYQQKPGQQPKLLIYLASHRESGVPARFSGSGSGTDFTLTIDPMEAEDTATYYCQQSRNDPWTFGQGTKLELKR
